{
  "source": "patent US20210063414A1",
  "about": "“METHODS FOR PREVENTING AND/OR TREATING BONE LOSS CONDITIONS BY MODULATING IRISIN” (Dana-Farber Cancer Institute, Inc., priority 2018, published 2021)",
  "molecules": {"B1": {"name": "irisin: secreted cleaved form of FNDC5; recombinant human/mouse irisin with C-terminal his tag produced in HEK293 cells (protein)", "chain": "DSPSAPVNVTVRHLKANSAVVSWDVLEDEVVIGFAISQQKKDVRMLRFIQEVNTTTRSCALWDLEEDTEYIVHVQAISIQGQSPASEPVLFKTPREAEKMASKNKDEVTMKE", "modifications": "left off: small tags and cut ends", "notes": "secreted cleaved form of FNDC5; recombinant human/mouse irisin with C-terminal his tag produced in HEK293 cells"}},
  "test_system": "MLO-Y4 cells",
  "experiment": "Integrin-like signaling (pFAK, pZyxin, pAKT, pCREB) in MLO-Y4 cells, immunoblot",
  "assay_type": "cell-based",
  "procedure": "Integrin heterodimer binds to its ligand. The interaction results in phosphorylation of FAK and Zyxin, followed by phosphorylation of AKT (at T308) and CREB. PM is plasma membrane. FIG. 2C and FIG. 2D show the immunoblots. MLO-Y4 cells were seeded and incubated until 60% cell density. The cells were incubated with serum free medium (FreeStyle™ 293 medium) for 4 hours and were treated for indicated time with 10 nM norepinephrine or irisin (FIG. 2C) or indicated concentrations of irisin for 10 minutes (FIG. 2D). Cells were lysed to detect the indicated protein level using immunoblot analysis.\nCertain materials and methods were used to generate the results described herein. For example, the data shown in FIG. 1A resulted from MLO-Y4 (an osteocyte-like cell line) cells treated with the indicated concentration of irisin and hydrogen peroxide for 4 hours. Cells were stained with Hoechst 33342 (ThermoFisher Scientific, catalog number H3570) and Eth-D1 (ThermoFisher Scientific, catalog number E1169) and analyzed to determine the percentage of cell death using ImageJ. The data shown in FIG. 2D resulted from MLO-Y4 incubated in serum free medium (FreeStyle™ 293 expression medium, ThermoFisher Scientific, catalog number 12338018) for 4 hours followed by treatment of indicated concentrations of irisin for 10 minutes. Cells were lysed to detect the indicated protein level using immunoblot analysis (Cell Signaling Technology, catalog numbers 3283S, 3285S, 8467S, 3553S, 9198S, and 9104S; Abcam, catalog number ab49900-100ul). The data shown in FIG. 3 resulted from 3T3-F442A cells incubated in serum free medium for 4 hours followed by treatment of indicated concentrations of irisin for 10 minutes. Cells were lysed by RIPA buffer to detect the indicated protein level using immunoblot analysis. The data shown in FIG. 4 were generated from 100 nM flag-tagged irisin (Enzo life sciences, catalog number ADI-908-307-3010) incubated with 5 nM of the indicated 6 his-tag integrins (R & D Systems Inc., catalog numbers 7064-AB-025, 5668-A4-050, 5438-A9-050, 6357-AB-050, and 6579-AV-025) in the presence of RGDS peptide (R & D Systems Inc., catalog number 3498/10) or its control peptide (Enzo Life Sciences, catalog Number BML-P701-0005) followed by immunoprecipitation using 6 his-tag beads (ThermoFisher Scientific, catalog number R901-01). Co-precipitated irisin was analyzed by immunoblot analysis against flag tag (Sigma Aldrich, catalog number A8592). The data shown in FIGS. 5A and 5B were generated from MLO-Y4 cells treated and analyzed as in the experiments used to generate the data shown in FIG. 2D, except that pre-treatment of 100 nM RGDS (FIG. 5A) or echistatin (R & D Systems Inc., catalog number 3202/100U) (FIG. 5B) for 10 minutes was performed before irisin treatment. The data shown in FIGS. 6A and 6B were generated from MLO-Y4 cells incubated in serum free medium for 3 hours followed by treatment of indicated time of 10 nM irisin for 16 hours. RNAs were extracted from the cells and the sclerostin mRNA level was analyzed by qPCR (FIG. 6A) or treated and analyzed as in (FIG. 6A), except that pre-treatment of 10 μM RGDS, RGDyK (Selleck, catalog number S7844), or echistatin was performed for 10 minutes before irisin treatment. The data shown in FIGS. 7A and 7B were generated from 8 week-old mice injected with the indicated dose of irisin for 6 days. Tibias were collected and treated with collagenase to obtain mRNA from the osteocyte-enriched bones. Sclerostin mRNA level was analyzed by qPCR (FIG. 7A). Serum was collected to analyze the sclerostin protein level using ELISA kit (R&D Systems Inc., catalog number MSST00) (FIG. 7B). The data shown in FIG. 8 were generated from 8 week-old mice injected with the indicated dose of irisin for 6 days. Epididymal fats were collected, RNAs were extracted from the tissues, and mRNA levels of the indicated genes were analyzed by qPCR. […]",
  "data": [
    {"molecule": "B1", "values": [
      {"measurement": "phosphorylation of AKT on threonine 308", "setting": "MLO-Y4, 10 nM irisin", "value": "phosphorylated on threonine 308"},
      {"measurement": "phosphorylation of AKT serine at amino acid 473", "setting": "MLO-Y4, 10 nM irisin", "value": "not induced"},
      {"measurement": "time after which CREB was phosphorylated", "setting": "MLO-Y4, 10 nM irisin", "value": 5, "unit": "min"},
      {"measurement": "time to phosphorylation of FAK", "setting": "MLO-Y4, 10 nM irisin", "value": 1, "unit": "min"},
      {"measurement": "phosphorylation of Zyxin", "setting": "MLO-Y4, irisin dose response, 10 minutes", "value": "phosphorylated potently"},
      {"measurement": "irisin dose as low as which induced phosphorylation of FAK", "setting": "MLO-Y4, serum free medium 4 hours, irisin 10 minutes", "value": 10, "unit": "pM"}
    ]}
  ]
}
